Test results from patent publication US20220125891.

Test system: T1, FLAG-tagged Regnase-1 AA mutant (S435A/S439A) from Regnase-1-deficient MEFs
T1 sequence: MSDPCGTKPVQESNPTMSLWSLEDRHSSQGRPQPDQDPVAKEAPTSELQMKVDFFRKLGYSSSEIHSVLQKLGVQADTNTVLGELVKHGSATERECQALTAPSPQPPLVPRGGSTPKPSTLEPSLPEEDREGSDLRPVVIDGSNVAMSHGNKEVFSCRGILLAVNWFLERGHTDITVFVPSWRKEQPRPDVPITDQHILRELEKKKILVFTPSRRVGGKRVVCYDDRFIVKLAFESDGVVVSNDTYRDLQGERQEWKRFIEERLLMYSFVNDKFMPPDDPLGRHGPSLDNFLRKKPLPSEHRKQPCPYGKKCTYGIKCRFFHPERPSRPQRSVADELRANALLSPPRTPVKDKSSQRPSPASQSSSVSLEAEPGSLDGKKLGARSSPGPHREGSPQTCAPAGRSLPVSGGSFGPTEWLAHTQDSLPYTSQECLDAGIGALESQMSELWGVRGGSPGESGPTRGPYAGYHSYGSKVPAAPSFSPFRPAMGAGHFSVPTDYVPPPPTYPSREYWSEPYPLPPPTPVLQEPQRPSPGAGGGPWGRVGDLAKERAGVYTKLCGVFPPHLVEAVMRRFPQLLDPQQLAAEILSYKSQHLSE

Substance | in vitro phosphorylation (mobility shift by immunoblotting, 32P autoradiography)
GST-tagged IKKi (Thermo Fisher Scientific) | Phosphorylation of recombinant Regnase-1 by recombinant TBK1 and/or IKKi under in vitro conditions was detected
GST-tagged TBK1 (Sigma) | Phosphorylation of recombinant Regnase-1 by recombinant TBK1 and/or IKKi under in vitro conditions was detected
